This note sets out measurements from ChEMBL document CHEMBL3593243, “Discovery of novel, potent, selective and cellular active ADC type PTP1B inhibitors via fragment-docking-oriented de novel design” (Bioorg Med Chem, 2015).

Substrate in data set [1]: CCOc1cc(NS(C)(=O)=O)c(OCC)cc1CNC(=O)Nc1ccc(OC)cc1
The settings on record: Homo sapiens; 0.8 uM.
Description: Inhibition of recombinant PTP1B (unknown origin) using pNPP as substrate assessed as enzyme Km at 0.8 uM after 30 mins by Michaelis-Menten plot analysis

Substrate in data set [2]: CCOc1cc(NS(C)(=O)=O)c(OCC)cc1CNC(=O)Nc1ccc(OC)cc1
Particulars: Homo sapiens; 0.2 uM.
Description: Inhibition of recombinant PTP1B (unknown origin) using pNPP as substrate assessed as enzyme Vmax at 0.2 uM after 30 mins by Michaelis-Menten plot analysis

Substrate in data set [3]: CCOc1cc(NS(C)(=O)=O)c(OCC)cc1CNC(=O)Nc1ccc(OC)cc1
Particulars: Homo sapiens; 0.4 uM.
Description: Inhibition of recombinant PTP1B (unknown origin) using pNPP as substrate assessed as enzyme Vmax at 0.4 uM after 30 mins by Michaelis-Menten plot analysis

Substrate in data set [4]: CCOc1cc(NS(C)(=O)=O)c(OCC)cc1CNC(=O)Nc1ccc(OC)cc1
Particulars: Homo sapiens; 0.4 uM. This is another data set of the same source.
Description: Inhibition of recombinant PTP1B (unknown origin) using pNPP as substrate assessed as enzyme Km at 0.4 uM after 30 mins by Michaelis-Menten plot analysis

Substrate in data set [5]: CCOc1cc(NS(C)(=O)=O)c(OCC)cc1CNC(=O)Nc1ccc(OC)cc1
The settings on record: Homo sapiens; 0.8 uM. The source holds these as a separate data set.
Description: Inhibition of recombinant PTP1B (unknown origin) using pNPP as substrate assessed as enzyme Vmax at 0.8 uM after 30 mins by Michaelis-Menten plot analysis

Substrate in data set [6]: CCOc1cc(NS(C)(=O)=O)c(OCC)cc1CNC(=O)Nc1ccc(OC)cc1
The settings on record: Homo sapiens; 0.1 uM.
Description: Inhibition of recombinant PTP1B (unknown origin) using pNPP as substrate assessed as enzyme Km at 0.1 uM after 30 mins by Michaelis-Menten plot analysis

Substrate in data set [7]: CCOc1cc(NS(C)(=O)=O)c(OCC)cc1CNC(=O)Nc1ccc(OC)cc1
The settings on record: Homo sapiens; 0.1 uM. The source holds these as a separate data set.
Description: Inhibition of recombinant PTP1B (unknown origin) using pNPP as substrate assessed as enzyme Vmax at 0.1 uM after 30 mins by Michaelis-Menten plot analysis

Substrate in data set [8]: CCOc1cc(NS(C)(=O)=O)c(OCC)cc1CNC(=O)Nc1ccc(OC)cc1
Description: Inhibition of recombinant PTP1B (unknown origin) using pNPP as substrate assessed as enzyme Km at 0.2 uM after 30 mins by Michaelis-Menten plot analysis
Particulars: Homo sapiens; 0.2 uM. The source holds these as a separate data set.

For orientation: Km means the substrate concentration at which the rate is half of its maximum.

B1: Tyrosine-protein phosphatase non-receptor type 1 (Homo sapiens), P18031 (protein)
chain: MEMEKEFEQIDKSGSWAAIYQDIRHEASDFPCRVAKLPKNKNRNRYRDVSPFDHSRIKLHQEDNDYINASLIKMEEAQRSYILTQGPLPNTCGHFWEMVWEQKSRGVVMLNRVMEKGSLKCAQYWPQKEEKEMIFEDTNLKLTLISEDIKSYYTVRQLELENLTTQETREILHFHYTTWPDFGVPESPASFLNFLFKVRESGSLSPEHGPVVVHCSAGIGRSGTFCLADTCLLLMDKRKDPSSVDIKKVLLEMRKFRMGLIQTADQLRFSYLAVIEGAKFIMGDSSVQDQWKELSHEDLEPPPEHIPPPPRPPKRILEPHNGKCREFFPNHQWVKEETQEDKDCPIKEEKGSPLNAAPYGIESMSQDTEVRSRVVGGSLRGAQAASPAKGEPSLPEKDEDHALSYWKPFLVNMCVATVLTAGAYLCYRFLFNSNT
For the protein B1, the Km in data set [1] was 7.32 mM; in data set [4], 4.52 mM; in data set [6], 2.96 mM; in data set [8], 3.89 mM. In addition, the Vmax (milli optical density/minute) in data set [2] is 54.8; in data set [3], 48.9; in data set [5], 52.5; in data set [7] it was 58.3.
